Data on two molecules can be found in publication PMC8499050 (Blood, 2021).

Assay [1] addresses T1, EGR-chloromethylketone active-site inhibited des-(Gla-EGF1) FXa (Homo sapiens, EGR-chloromethylketone in the active site).
T1 chain 1: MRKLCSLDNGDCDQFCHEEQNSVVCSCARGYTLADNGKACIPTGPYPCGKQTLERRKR
T1 chain 2: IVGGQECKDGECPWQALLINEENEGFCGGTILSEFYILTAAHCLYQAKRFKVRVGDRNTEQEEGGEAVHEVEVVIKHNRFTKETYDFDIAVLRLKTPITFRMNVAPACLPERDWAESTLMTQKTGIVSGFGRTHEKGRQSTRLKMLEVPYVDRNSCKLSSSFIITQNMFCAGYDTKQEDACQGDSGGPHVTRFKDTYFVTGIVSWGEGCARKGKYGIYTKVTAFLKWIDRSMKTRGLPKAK
Kind of assay: crystal structure.

Assay [2] deals with EGR-chloromethylketone active-site inhibited des-(Gla-EGF1) FIXa (Homo sapiens, EGR-chloromethylketone in the active site). Kind of assay: crystal structure.

B1: Mim8 anti-FX Fab fragment (Fab, V domains shown)
VH: EVQLVQSGAEVKKPGESLRISCKGSGYSFSTSWIVWVRQMPGKGLEWMGMIDPSDSFTSYSPSFQGHVTISADKSISTAYLQWSSLKASDTAMYYCARLHYYNSEEFDVWGQGTLVTVSS
VL: EIVLTQSPGTLSLSPGERATLSCRASQSVSSSYLAWYQQKPGQAPRLLIYGQSSRTRGIPDRFSGSGSGTDFTLTISRLEPEDFAVYYCQQFGDSQLFTFGQGTKLEIK
For the molecule B1, the binding result in assay [1] is recorded as “binds”.

B2: Mim8 anti-FIXa Fab fragment (Fab, V domains shown)
VH: EVQLVESGGGLVQPGRSLRLSCAASGFTFHDYAMHWVRQVPGKGLEWVSGISWRGDIGGYVKSVKGRFTISRDNAKNSLYLQMNSLRAEDTALYYCVKSYGSGSFYNAFDSWGQGTLVTVSS
VL: DIQMTQSPSTLSASVGDRVTITCRASQSISSWLAWYQQKPGKAPKFLIYKASKLERGTPSRFSGSGDGTEFSLTISSLQPDDFATYYCLEYSSYIRTFGQGTKVEIK
Turning to B2, the binding result in assay [2] was “binds”.
